From US10702610B2, “Method of making sulfur-containing polymers from hexahydrotriazine and dithiol precursors” (International Business Machines Corporation, priority 2015, dated 2020)
No end group written: not given here.

Assays:
[1] = tested on: human embryonic kidney cells from cell line HEK293; assay: incubation with HEK293 cells, cell viability; assay type: cell-based
Description: (§1) To investigate toxicity of the polymer-peptide product, the polymer-peptide product was dissolved in a simulated physiological environment comprising 10% prenatal bovine serum in a phosphate-buffered saline solution. […] The polymer-peptide products was also incubated with human embryonic kidney cells from cell line HEK293 for 24 hours, after which more than 90% cell viability was observed.

hemolysis = assay type: cell-based; details: doses up to 1000 mg/L
Description: as §1

[2] = dissolution in simulated physiological environment (10% prenatal bovine serum in phosphate-buffered saline), precipitation/aggregation; assay type: physicochemical; details: over 24 hours
Description: as §1

Substance | cell viability ([1]; HEK293, dose of 50 mg/L) | hemolysis (hemolysis) | cell viability ([1]; HEK293, 200 mg/L, similar incubation period) | cell viability ([1]; HEK293, incubated 24 hours, dose not stated) | precipitation or aggregation in solution [2]
peptide: thiol-containing amphiphilic alpha-helical peptide SEQ. ID: NO: 1-NH2 (CLLKKLLKKC-NH2; cysteine pairing not given here) [reference compound] | below 70% | – | – | – | –
polymer-peptide product: peptide SEQ. ID: NO: 1-NH2 attached to water-soluble polythioaminal polymer 4a (CLLKKLLKKC-NH2; cysteine pairing not given here; also: attached to polythioaminal polymer 4a) | – | No hemolysis was observed | more than 80% | more than 90% | No precipitation or aggregation was observed
